Assay results as given in IntAct's records for PubMed 19287395.

B1: Serine/threonine-protein phosphatase 1 regulatory subunit 10 (Mus musculus), Q80W00 (parent)
chain: MGSGPIDPKELLKGLDSFLTRDGEVKSVDGISKIFSLMKEARKMVSRCTYLNIILQTRAPEVLVKFIDVGGYKLLNNWLTYSKTTNNIPLLQQILLTLQHLPLTVDHLKQNNTAKLVKQLSKSSEDEELRKLASVLVSDWMAVIRSQSSTQPAEKDKKKRKEEGKSRTTLPERPLTEVKAETRAEEAPEKKKEKPKSLRTTAPSHAKFRSTGLELDTPSLVPVKKNSSTVVVSDKYNLKPIPLKRQSATAAPGDAAPPAEKKYKPLNTAPNTTKEIKVKIIPPQPMEGLGFLDALNSAPVPGIKIKKKKKVLSPTAAKPSPFEGKTSTEQSTAKPSSPEPAPPAEPMDTDRPGTPVPPVEVPELMDAASSEPGALDAKPVDSPGDPNQLTRKGRKRKTVTWPEEGKLREYFYFELDETERVNVNKIKDFGEAAKREILSDRHAFETARRLSHDNMEEKVPWVCPRPLVLPSPLVIPGSNSQERYIQAEREKGILQELFLNKESPHEPDPEPYEPIPPKLIPLDEECAMDETPYVETLEPGGSGGSPDGAGGSKLPPVLANLMGSMGAGKSPQGPGGGGINVQEILTSIMGSPNSHPSEELLKQPDYSDKLKQMLVPHGLLGPGPVANGFPPGGPGGPKGMQHFPPGPGGPMPGPHGGPGGPVGPRLLGPPPPSRGGDPFWDGPGDPMRGGPMRGGPGPAPGPYHRGRGGRGGNEPPPPPPFRGARGGRSGGGPPNGRGGPGGGGMVGGGGHRPHEGPGGSMGSGHRSHDGPGGNMGSGHRSHDGPGGNMGGSGGHRSHEGPGHGGPHGHRPHDVPSHRGHDHRGPPPHEHRGHDGHGGGGHRGHDGGHSHGGDMSNRPVCRHFMMKGNCRYENNCAFYHPGVNGPPLP
B2: Microcephalin (Homo sapiens), Q8NEM0 (parent)
chain: MAAPILKDVVAYVEVWSSNGTENYSKTFTTQLVDMGAKVSKTFNKQVTHVIFKDGYQSTWDKAQKRGVKLVSVLWVEKCRTAGAHIDESLFPAANMNEHLSSLIKKKRKCMQPKDFNFKTPENDKRFQKKFEKMAKELQRQKTNLDDDVPILLFESNGSLIYTPTIEINSRHHSAMEKRLQEMKEKRENLSPTSSQMIQQSHDNPSNSLCEAPLNISRDTLCSDEYFAGGLHSSFDDLCGNSGCGNQERKLEGSINDIKSDVCISSLVLKANNIHSSPSFTHLDKSSPQKFLSNLSKEEINLQRNIAGKVVTPDQKQAAGMSQETFEEKYRLSPTLSSTKGHLLIHSRPRSSSVKRKRVSHGSHSPPKEKCKRKRSTRRSIMPRLQLCRSEDRLQHVAGPALEALSCGESSYDDYFSPDNLKERYSENLPPESQLPSSPAQLSCRSLSKKERTSIFEMSDFSCVGKKTRTVDITNFTAKTISSPRKTGNGEGRATSSCVTSAPEEALRCCRQAGKEDACPEGNGFSYTIEDPALPKGHDDDLTPLEGSLEEMKEAVGLKSTQNKGTTSKISNSSEGEAQSEHEPCFIVDCNMETSTEEKENLPGGYSGSVKNRPTRHDVLDDSCDGFKDLIKPHEELKKSGRGKKPTRTLVMTSMPSEKQNVVIQVVDKLKGFSIAPDVCETTTHVLSGKPLRTLNVLLGIARGCWVLSYDWVLWSLELGHWISEEPFELSHHFPAAPLCRSECHLSAGPYRGTLFADQPAMFVSPASSPPVAKLCELVHLCGGRVSQVPRQASIVIGPYSGKKKATVKYLSEKWVLDSITQHKVCAPENYLLSQ
B3: TERF1-interacting nuclear factor 2 (Homo sapiens), Q9BSI4 (parent)
chain: MATPLVAGPAALRFAAAASWQVVRGRCVEHFPRVLEFLRSLRAVAPGLVRYRHHERLCMGLKAKVVVELILQGRPWAQVLKALNHHFPESGPIVRDPKATKQDLRKILEAQETFYQQVKQLSEAPVDLASKLQELEQEYGEPFLAAMEKLLFEYLCQLEKALPTPQAQQLQDVLSWMQPGVSITSSLAWRQYGVDMGWLLPECSVTDSVNLAEPMEQNPPQQQRLALHNPLPKAKPGTHLPQGPSSRTHPEPLAGRHFNLAPLGRRRVQSQWASTRGGHKERPTVMLFPFRNLGSPTQVISKPESKEEHAIYTADLAMGTRAASTGKSKSPCQTLGGRALKENPVDLPATEQKENCLDCYMDPLRLSLLPPRARKPVCPPSLCSSVITIGDLVLDSDEEENGQGEGKESLENYQKTKFDTLIPTLCEYLPPSGHGAIPVSSCDCRDSSRPL
B4: Telomeric repeat-binding factor 2 (Homo sapiens), Q15554 (parent)
chain: MAAGAGTAGPASGPGVVRDPAASQPRKRPGREGGEGARRSDTMAGGGGSSDGSGRAAGRRASRSSGRARRGRHEPGLGGPAERGAGEARLEEAVNRWVLKFYFHEALRAFRGSRYGDFRQIRDIMQALLVRPLGKEHTVSRLLRVMQCLSRIEEGENLDCSFDMEAELTPLESAINVLEMIKTEFTLTEAVVESSRKLVKEAAVIICIKNKEFEKASKILKKHMSKDPTTQKLRNDLLNIIREKNLAHPVIQNFSYETFQQKMLRFLESHLDDAEPYLLTMAKKALKSESAASSTGKEDKQPAPGPVEKPPREPARQLRNPPTTIGMMTLKAAFKTLSGAQDSEAAFAKLDQKDLVLPTQALPASPALKNKRPRKDENESSAPADGEGGSELQPKNKRMTISRLVLEEDSQSTEPSAGLNSSQEAASAPPSKPTVLNQPLPGEKNPKVPKGKWNSSNGVEEKETWVEEDELFQVQAAPDEDSTTNITKKQKWTVEESEWVKAGVQKYGEGNWAAISKNYPFVNRTAVMIKDRWRTMKRLGMN
partner: B1 chain

Variants of: B1
Details: with terf2_human TERF2, Q15554
In the case of Y236A;L238A, the “effect of a mutation on the interaction” value is reported as “disrupting interaction”.

Variants of: B2
Details: with terf2_human TERF2, Q15554
In the case of Y330A;L332A, the “effect of a mutation on the interaction” value is reported as “disrupting interaction”.

Variants of: B3
Details: with terf2_human TERF2, Q15554
With F258A;L260A the “effect of a mutation on the interaction” value was “decreasing interaction”.

Variants of: B4
Details: with pp1ra_mouse Ppp1r10, Q80W00
F162A was tested, and the “effect of a mutation on the interaction” value was “disrupting interaction strength”.
